Results reported in US20250263481A1 (SHIJIAZHUANG YILING PHARMACEUTICAL, published 2025).

B1: YL-G1-19-01 (antibody, human IgG1, kappa, V domains shown)
VH: QVQLQQSGAELVRPGTSVKVSCKASGYAFTNYLIEWVKQRPGQGLEWIGVINPGSGGTNYNEKFKGKATLTADKSSNTAYMQLSSLTSEDSAVYFCARVYYGNSFGYWGQGTLVTVSA
VL: DIVMTQSPSSLTVTAGEKVTMSCKSSQSLLNSGNQKNYLTWYQQKPGQPPKLLIYWASTRESGVPDRFTGSGSGTDFTLTISSVQAEDLAVYYCQNEYFYPFTFGSGTKLEIKR
notes: also called chimeric antibody with the variable region of one of the mouse mAbs
B2: YL-G1-19-04 (antibody, human IgG1, kappa)
heavy: not shown
light: DIVMTQSPSSLTVTAGEKVTLSCKSSQSLLNSGNQKNYLTWYQQRPGQPPKLLIYWASTRESGVPVRFTGSGSGADFTLTISSVQAEDLAVYFCQNAYFYPLTFGTGTKLELRRTVAAPSVFIFPPSDEQLKSGTASVVCLLNNFYPREAKVQWKVDNALQSGNSQESVTEQDSKDSTYSLSSTLTLSKADYEKHKVYACEVTHQGLSSPVTKSFNRGEC
notes: Mouse/human chimeric IgG1 kappa, first generation
B3: YL-G2-D (antibody, human IgG1, kappa)
heavy: QLQQSGPELEKPGASVKISCKASGYSFTGYKMNWVKQSNGESLEWIGNIDPYYGDTTYTQKFKGKATFTVDTSSSTAYMQLKSLTSEDSAVYFCARYNRGNTMDYWGQGTSVTVSSASTKGPSVFPLAPSSKSTSGGTAALGCLVKDYFPEPVTVSWNSGALTSGVHTFPAVLQSSGLYSLSSVVTVPSSSLGTQTYICNVNHKPSNTKVDKRVEPKSCDKTHTCPPCPAPELVGGPSVFLLPPKPKDTLMISRTPEVTCVVVDVSHEDPEVKFNWYVDGVEVHNAKTKPPEEQYNSTLRVVSVLTVLHQDWLNGKEYKCKVSNKALPAPIEKTISKAKGQPREPQVYTLPPSREEMTKNQVSLTCLVKGFYPSDIAVEWESNGQPENNYKTTPLVLDSDGSFFLYSKLTVDKSRWQQGNVFSCSVMHEALHNHYTQKSLSLSPGK
light: B2 light
notes: Second generation, Fc-engineered form of YL-G1-19-04

Assays:
[1] = target: T1, human CLDN18.2 expressed on cells (human); experiment: flow cytometry (geometric mean, Alexa Fluor 647 anti-human IgG Fc secondary) on CLDN18.2-expressing 293T cells
T1 construct: also called huCLDN18.2; CLDN18.2-expressing 293T cells
Experimental: (§1) CLDN18.2-expressing 293T cells and CLDN18.1-expressing 293T cells at a density of 2×10⁶ cells/ml in FACS buffer ([…]) were mixed with a dilution series ([…] in FACS buffer) of the chimeric antibodies, the reference antibody, or a IgG negative control (50 μL) in a 96-well V-bottom plate and incubated for 30 min on ice. After a wash with 200 μL/well FACS buffer, cells were resuspended in 30 μL/well secondary antibody Alexa Fluor® 647 AffiniPure Goat Anti-Human IgG, […] specific (Jackson, Cat. #109-605-098) and incubated for 20 min on ice. After three washes with 200 μL/well FACS buffer, cells were resuspended with 150 μl/well FACS buffer and subjected to FACS using BD LSR II Flow Cytometer (HTS). Geometric mean was used for data analysis and plots were made using Prism GraphPad.

[2] = target: T2, human CLDN18.1 expressed on cells (human, UniProt P56856 1-261); experiment: flow cytometry (geometric mean, Alexa Fluor 647 anti-human IgG Fc secondary) on CLDN18.1-expressing 293T cells
T2 construct: also called huCLDN18.1; CLDN18.1-expressing 293T cells
T2 sequence (P56856 whole entry): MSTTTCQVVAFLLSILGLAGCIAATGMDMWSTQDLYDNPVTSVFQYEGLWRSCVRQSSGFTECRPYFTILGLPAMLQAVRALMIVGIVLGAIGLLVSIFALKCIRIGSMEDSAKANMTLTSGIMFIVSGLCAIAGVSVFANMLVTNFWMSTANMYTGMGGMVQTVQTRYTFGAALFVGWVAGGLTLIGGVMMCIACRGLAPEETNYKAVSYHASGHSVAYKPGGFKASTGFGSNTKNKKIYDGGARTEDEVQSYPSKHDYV
Experimental: as §1

[3] = target: T1, human CLDN18.2 expressed on cells; experiment: cell-based or functional assay
[4] = target: T1, human CLDN18.2 expressed on cells; experiment: cell-based or functional assay; remark: listed apart in the source
[5] = target: T1, human CLDN18.2 expressed on cells; experiment: cell-based or functional assay; remark: listed apart in the source
[6] = target: T1, human CLDN18.2 expressed on cells; experiment: cell-based or functional assay; remark: listed apart in the source
[7] = target: T1, human CLDN18.2 expressed on cells; experiment: KinExA 4000, antibody constant, CHO cells over-expressing huCLDN18.2 titrated
Experimental: A KinExA 4000 instrument was also used to measure binding affinity of the antibodies to surface protein of intact cells, i.e., CHO cells over-expressing huCLDN18.2. Concentration of the antibodies was held constant (CBP) and concentration of whole cells with surface protein were varied (titrant). Concentration of whole cells with surface proteins were diluted three-fold. Titrated cells were incubated with the constant binding partner (CBP). Once equilibrium was reached, the samples were centrifuged, the supernatants were recovered, and the free CBP was detected with a fluorescently labeled anti-CBP molecule.
To establish a more accurate Kd, two equilibrium curves were prepared and analyzed. One curve with low concentration of CBP at 100 pM (200 pM binding sites) and 10⁶ cells/mL with three-fold dilutions, and one curve with high concentration of CBP at 10 nM (20 nM binding sites) and 10⁶ cells/mL with three-fold dilutions. The KinExA 4000 measured the amount of unbound CBP in solution. Analysis was performed using Sapidyne Instruments n-Curve Analysis Software version 4.4.26.

[8] = target: T1, human CLDN18.2 expressed on cells; experiment: flow cytometry (percent FITC-positive cells, GAH-FITC secondary) on CHO cells expressing huCLDN18.2
Experimental: CHO cells expressing huCLDN18.2 were used to assess the binding of the antibodies. Cells were seeded at 5×10⁵ cells per 100 μl into a well of a 96-well plate for each sample. Then, 100 μl of each serially diluted antibody was added to the cells, each dilution started at 40 µg/ml and was diluted 5-fold. Therefore, the final concentration of each antibody starts at 20 µg/ml followed by a 5-fold serial dilution. After 1 hour, the cells were washed twice and 100 μl of GAH-FITC (1:200 dilution) was added to each well. After 30 minutes, the cells were washed twice and resuspended in 120 μl of FACS buffer. The cells were analyzed via flow cytometry.
Unstained cells were used as a reference to set up overall target cell gating and to establish the FITC-negative populations, allowing us to establish the FITC-positive cell gate for each cell line. Additionally, the mean fluorescence intensity (MFI) of the entire population of cells was calculated to secondarily validate the FITC-positive results. The ratio of the gated positive cell number to the total live cell number is taken as the percentage of positive cells.

Binder | EC50 (read off the curve) [1] [µg/mL] | binding result [2] | CDC on CT26 CLDN18.2 cells, LDH: EC50 [3] [pM] | CDC on CT26 CLDN18.2 cells, LDH: max (% cytotoxity) [3] [%] | CDC on KATOIII CLDN18.2 cells, LDH: EC50 [4] [pM] | CDC on KATOIII CLDN18.2 cells, LDH: max (% cytotoxity) [4] [%] | ADCC on KATOIII CLDN18.2 cells, LDH: EC50 [5] [pM] | ADCC on KATOIII CLDN18.2 cells, LDH: max (% cytotoxity) [5] [%] | ADCC on NCI-N87 CLDN18.2 cells, LDH: EC50 [6] [pM] | ADCC on NCI-N87 CLDN18.2 cells, LDH: max (% cytotoxity) [6] [%] | Kd [7] [pM] | EC50 (read off the curve) [8] [µg/mL]
B1 | ~1 | no binding (tested: about 30 ug/ml) | – | – | – | – | – | – | – | – | – | –
B2 | ~0.7 | no binding (tested: about 30 ug/ml) | 190 | 59.2 | 4760 | 48.3 | 140 | 15.4 | 67 | 12.6 | – | –
B3 | – | – | 120 | 71.8 | 2400 | 49.2 | 21 | 18.4 | 8.9 | 18.6 | 13.1 | ~0.0003
